Broadly, the Km is the concentration of substrate that gives half-maximal velocity.

Substrate in the series: NC(=O)C[C@H](N)C(=O)O
Kind of series: ammonia release by direct Nesslerization; Lineweaver-Burk plot. It is filed as biochemical, Thermococcus sibiricus. Particulars: Tris-HCl 0.05 M, pH 9.0, 90 °C, printed substrate range 20-250 μM.

B1: TsA (L-asparaginase from Thermococcus sibiricus) (Thermococcus sibiricus MM 739) (protein)
chain: MKKLLIIGTGGTIASAKTEQGYKSVLKIDEILKLAKIKLENGYKIDSTNIMNIDSTLIHPEDWEIIAKEVFKALDDYDGIIITHGTDTLAYTASMLSFMIKNPNKPIVLTGSMLPITENGSDAPRNIRTAIKFAMEDVAGVFVAFMDKIMLGCRTSKVRTLGLNAFMSINYPDVAYVKGEKILYNIPKEKFQPNGSPELDTKYEPRVVVLRVTPGLGGEIIDAVLDAGYKGIVLEGYGAGGLPYRKSNLLSKIKEITPKIPVIMTTQALYDGVDMRKYEVGRKALETGIIPAKDMTKEATITKLMWALGHTKDVEKIREIMHTNYVNEIKS
notes: full-length, 331 residues, codon-optimized synthetic gene in pET-28a(+) NheI/SalI, E. coli BL21 (DE3); SP-Sepharose ion exchange
For the protein B1, the Michaelis-Menten constant (Km) was found to be 2.8 mM.

Source of the values: paper PMC8470970, “A Novel L-Asparaginase from Hyperthermophilic Archaeon Thermococcus sibiricus: Heterologous Expression and Characterization for Biotechnology Application” (International Journal of Molecular Sciences, 2021).
